B1: Zinc finger protein 165 (Homo sapiens), P49910 (parent)
chain: MATEPKKAAAQNSPEDEGLLIVKIEEEEFIHGQDTCLQRSELLKQELCRQLFRQFCYQDSPGPREALSRLRELCCQWLKPEIHTKEQILELLVLEQFLTILPGDLQAWVHEHYPESGEEAVTILEDLERGTDEAVLQVQAHEHGQEIFQKKVSPPGPALNVKLQPVETKAHFDSSEPQLLWDCDNESENSRSMPKLEIFEKIESQRIISGRISGYISEASGESQDICKSAGRVKRQWEKESGESQRLSSAQDEGFGKILTHKNTVRGEIISHDGCERRLNLNSNEFTHQKSCKHGTCDQSFKWNSDFINHQIIYAGEKNHQYGKSFKSPKLAKHAAVFSGDKTHQCNECGKAFRHSSKLARHQRIHTGERCYECNECGKSFAESSDLTRHRRIHTGERPFGCKECGRAFNLNSHLIRHQRIHTREKPYECSECGKTFRVSSHLIRHFRIHTGEKPYECSECGRAFSQSSNLSQHQRIHMRENLLM
partner: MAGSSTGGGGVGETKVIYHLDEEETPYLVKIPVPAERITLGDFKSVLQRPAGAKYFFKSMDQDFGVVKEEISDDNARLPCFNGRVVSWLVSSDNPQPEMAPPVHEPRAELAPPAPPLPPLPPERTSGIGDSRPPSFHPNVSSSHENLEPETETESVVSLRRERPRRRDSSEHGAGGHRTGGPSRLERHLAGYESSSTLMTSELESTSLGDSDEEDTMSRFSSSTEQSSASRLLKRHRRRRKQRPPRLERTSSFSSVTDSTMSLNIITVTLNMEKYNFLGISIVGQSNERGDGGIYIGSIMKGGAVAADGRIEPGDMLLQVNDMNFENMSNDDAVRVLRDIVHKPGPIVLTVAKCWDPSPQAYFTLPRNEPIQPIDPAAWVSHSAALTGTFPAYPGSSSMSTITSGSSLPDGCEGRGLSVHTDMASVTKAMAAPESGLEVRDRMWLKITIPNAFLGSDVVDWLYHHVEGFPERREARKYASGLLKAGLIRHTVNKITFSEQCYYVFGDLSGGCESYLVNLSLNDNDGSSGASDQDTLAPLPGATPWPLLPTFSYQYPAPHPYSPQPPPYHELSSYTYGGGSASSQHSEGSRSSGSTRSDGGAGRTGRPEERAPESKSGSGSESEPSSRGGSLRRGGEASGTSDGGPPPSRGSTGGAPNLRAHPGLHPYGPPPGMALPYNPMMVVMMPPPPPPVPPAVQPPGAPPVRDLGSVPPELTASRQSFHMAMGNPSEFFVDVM
B2: Calcium-binding and coiled-coil domain-containing protein 2 (Homo sapiens), Q13137 (parent)
chain: MEETIKDPPTSAVLLDHCHFSQVIFNSVEKFYIPGGDVTCHYTFTQHFIPRRKDWIGIFRVGWKTTREYYTFMWVTLPIDLNNKSAKQQEVQFKAYYLPKDDEYYQFCYVDEDGVVRGASIPFQFRPENEEDILVVTTQGEVEEIEQHNKELCKENQELKDSCISLQKQNSDMQAELQKKQEELETLQSINKKLELKVKEQKDYWETELLQLKEQNQKMSSENEKMGIRVDQLQAQLSTQEKEMEKLVQGDQDKTEQLEQLKKENDHLFLSLTEQRKDQKKLEQTVEQMKQNETTAMKKQQELMDENFDLSKRLSENEIICNALQRQKERLEGENDLLKRENSRLLSYMGLDFNSLPYQVPTSDEGGARQNPGLAYGNPYSGIQESSSPSPLSIKKCPICKADDICDHTLEQQQMQPLCFNCPICDKIFPATEKQIFEDHVFCHSL
partner: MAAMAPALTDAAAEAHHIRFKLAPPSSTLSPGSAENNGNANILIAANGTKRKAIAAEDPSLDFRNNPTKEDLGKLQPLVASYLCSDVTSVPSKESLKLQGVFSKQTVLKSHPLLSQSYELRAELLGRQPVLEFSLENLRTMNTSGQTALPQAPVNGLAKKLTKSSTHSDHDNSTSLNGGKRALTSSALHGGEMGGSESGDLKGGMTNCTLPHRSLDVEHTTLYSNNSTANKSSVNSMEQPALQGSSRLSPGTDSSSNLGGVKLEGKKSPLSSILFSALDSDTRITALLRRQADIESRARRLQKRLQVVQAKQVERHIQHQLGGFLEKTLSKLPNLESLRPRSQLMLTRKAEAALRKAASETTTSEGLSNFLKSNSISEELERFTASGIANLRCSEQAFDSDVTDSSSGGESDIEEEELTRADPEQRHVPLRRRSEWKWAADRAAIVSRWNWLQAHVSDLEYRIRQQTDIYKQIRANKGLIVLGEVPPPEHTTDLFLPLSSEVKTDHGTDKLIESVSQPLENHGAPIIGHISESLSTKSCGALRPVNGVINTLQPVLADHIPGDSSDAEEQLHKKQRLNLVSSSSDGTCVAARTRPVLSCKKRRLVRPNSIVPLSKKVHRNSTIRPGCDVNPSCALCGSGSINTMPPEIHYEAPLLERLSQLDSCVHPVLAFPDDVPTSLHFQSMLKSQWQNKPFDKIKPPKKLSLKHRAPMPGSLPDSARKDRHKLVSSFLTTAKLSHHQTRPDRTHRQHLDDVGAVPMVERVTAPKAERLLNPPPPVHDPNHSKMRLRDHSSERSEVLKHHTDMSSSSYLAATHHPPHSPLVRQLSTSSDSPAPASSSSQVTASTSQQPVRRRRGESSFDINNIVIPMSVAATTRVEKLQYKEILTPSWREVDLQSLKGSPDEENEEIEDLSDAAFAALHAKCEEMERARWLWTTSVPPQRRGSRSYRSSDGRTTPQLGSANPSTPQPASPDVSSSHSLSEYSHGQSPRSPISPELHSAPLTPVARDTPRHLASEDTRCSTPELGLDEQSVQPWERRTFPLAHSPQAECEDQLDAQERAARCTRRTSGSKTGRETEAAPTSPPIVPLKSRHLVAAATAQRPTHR
B3: Spermatogenic leucine zipper protein 1 (Homo sapiens), Q9BXG8 (parent)
chain: MASSAKSAEMPTISKTVNPTPDPHQEYLDPRITIALFEIGSHSPSSWGSLPFLKNSSHQVTEQQTAQKFNNLLKEIKDILKNMAGFEEKITEAKELFEETNITEDVSAHKENIRGLDKINEMLSTNLPVSLAPEKEDNEKKQEMILETNITEDVSAHKENIRGLDKINEMLSTNLPVSLAPEKEDNEKKQQMIMENQNSENTAQVFARDLVNRLEEKKVLNETQQSQEKAKNRLNVQEETMKIRNNMEQLLQEAEHWSKQHTELSKLIKSYQKSQKDISETLGNNGVGFQTQPNNEVSAKHELEEQVKKLSHDTYSLQLMAALLENECQILQQRVEILKELHHQKQGTLQEKPIQINYKQDKKNQKPSEAKKVEMYKQNKQAMKGTFWKKDRSCRSLDVCLNKKACNTQFNIHVARKALRGKMRSASSLR
partner: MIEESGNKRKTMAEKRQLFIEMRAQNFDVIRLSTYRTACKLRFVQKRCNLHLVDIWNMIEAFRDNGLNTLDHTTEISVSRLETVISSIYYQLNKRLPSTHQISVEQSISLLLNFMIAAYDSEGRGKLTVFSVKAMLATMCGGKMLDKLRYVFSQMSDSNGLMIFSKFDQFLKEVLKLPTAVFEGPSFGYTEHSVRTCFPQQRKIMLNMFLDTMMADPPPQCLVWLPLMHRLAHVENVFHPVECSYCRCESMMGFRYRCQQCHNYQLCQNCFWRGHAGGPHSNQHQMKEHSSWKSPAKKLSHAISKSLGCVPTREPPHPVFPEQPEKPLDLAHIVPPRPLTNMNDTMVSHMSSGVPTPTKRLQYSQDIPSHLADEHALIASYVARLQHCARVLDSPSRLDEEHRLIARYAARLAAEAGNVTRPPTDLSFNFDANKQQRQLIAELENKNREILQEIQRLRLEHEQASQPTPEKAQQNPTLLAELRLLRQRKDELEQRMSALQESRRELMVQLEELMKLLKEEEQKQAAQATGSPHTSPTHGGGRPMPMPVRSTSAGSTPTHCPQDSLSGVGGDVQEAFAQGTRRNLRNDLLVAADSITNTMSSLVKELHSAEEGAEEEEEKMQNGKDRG
B4: Aminoacylase-1 (Homo sapiens), Q03154 (parent)
chain: MTSKGPEEEHPSVTLFRQYLRIRTVQPKPDYGAAVAFFEETARQLGLGCQKVEVAPGYVVTVLTWPGTNPTLSSILLNSHTDVVPVFKEHWSHDPFEAFKDSEGYIYARGAQDMKCVSIQYLEAVRRLKVEGHRFPRTIHMTFVPDEEVGGHQGMELFVQRPEFHALRAGFALDEGIANPTDAFTVFYSERSPWWVRVTSTGRPGHASRFMEDTAAEKLHKVVNSILAFREKEWQRLQSNPHLKEGSVTSVNLTKLEGGVAYNVIPATMSASFDFRVAPDVDFKAFEEQLQSWCQAAGEGVTLEFAQKWMHPQVTPTDDSNPWWAAFSRVCKDMNLTLEPEIMPAATDNRYIRAVGVPALGFSPMNRTPVLLHDHDERLHEAVFLRGVDIYTRLLPALASVPALPSDS
partner: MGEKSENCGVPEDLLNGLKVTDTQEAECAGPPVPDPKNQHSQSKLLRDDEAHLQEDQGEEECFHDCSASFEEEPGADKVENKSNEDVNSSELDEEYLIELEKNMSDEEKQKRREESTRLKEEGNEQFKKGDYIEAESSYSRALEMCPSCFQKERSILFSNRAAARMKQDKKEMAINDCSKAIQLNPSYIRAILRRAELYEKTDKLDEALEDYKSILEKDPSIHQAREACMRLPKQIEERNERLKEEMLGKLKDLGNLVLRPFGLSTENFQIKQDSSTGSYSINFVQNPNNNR

Variants of: B1
Conditions: with dvl2_human DVL2, O14641

Row | effect of a mutation on the interaction | Variant
1 | with no effect | R69C

Variants of: B2
Conditions: with kanl1_human KANSL1, Q7Z3B3

Row | effect of a mutation on the interaction | Variant
2 | with no effect | T273A
3 | with no effect | P389A

Variants of: B3
Conditions: with dtnb_human DTNB

Row | effect of a mutation on the interaction | Variant
4 | with no effect | H301P
5 | with no effect | E9K

Variants of: B4
Conditions: with ttc1_human TTC1, Q99614

Row | effect of a mutation on the interaction | Variant
6 | disrupting interaction strength | R197W

From IntAct's records for PubMed 31515488
